Laboratory results taken from the nanobody polyreactivity screen of Harvey et al. (2022).

Experiment: yeast display, Sf9 membrane polyspecificity reagent, FACS + sequencing; frameworks hold sequencing errors
Outline: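 Polyreactivity labels are assigned by the sorting gate from which each nanobody was recovered. The gates were low and high (top ~1%), set on anti-HA fluorescence for expression and streptavidin fluorescence for reagent binding. Before sorting, galactose-induced (36–48 hours) yeast display cells were stained for 1 hour at 4 °C with 10% biotinylated, detergent-solubilized Sf9 membrane reagent.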

Row | Sequence | polyreactivity (PSR sort gate)
1 | QVQLVESGGGLVQAGGSLRLSCAASGRTLPAYAMGWYRQAPGKERELVAAISWGGGSTYYADSVKGRFTISRDNAKNTVYLQMNSLKPEDTAVYYCAVAGYWFAVAEYDYWGQGTQVTVSS | low polyreactivity
2 | QVQLVESGGGLVQAGGSLRLSCAASGRTLPKYVMGCYRQAPGKERELVDAISSSGDSTYYADSVKGRFTISRDNAKNTVYLQMNSLKPEDTAVYYCAKYDRNTYGYWGQGTQVTVSS | low polyreactivity
3 | QVQLVESGGGLVQAGGSLRLSCAASGRTLPPNDMGWYRQAPGKERELVAAITRSGGRTYYADSVKGRFTISRDNAKNTVYLQMNSLKPEDTAVYYCATYNPPYSDYSRYNYWGQGTQVTVSS | high polyreactivity
4 | QVQLVESGGGLVQAGGSLRLSCAASGRTLPRYAMGGYRQAPGKERELVARIRYRGVSTYYADSVKGRFTISRDNAKTSVYLQMNSLKPEDTAVYYCAARASRAGLSGYWGQGTQVTVSS | high polyreactivity
5 | QVQLVESGGGLVQAGGSLRLSCAASGRTLPSYAMGWYRQAPGKERELVAAITGSGGRTYYADSVKGRFTISRDNAKNTVYLQMNSLKPEDTAVYYCAARQDDYGKINYYWGQGTQVTVSS | high polyreactivity
6 | QVQLVESGGGLVQAGGSLRLSCAASGRTLQAYAMGWYRQAPGKERELVAAINSSGGTTYYADSVKGRFTISRDNAKNTVYLQMNSLKPEDTAVYYCAATYWYHGRYYWYAYDYWGQGTQVTVSS | high polyreactivity
7 | QVQLVESGGGLVQAGGSLRLSCAASGRTLRHYAMGWYRQAPGKERELVAAISSTGSSTYYADSVKGRFTISRDNAKNTVYLQMNCLKPEDTAVYYCNAGKKYVDYGVLSSRYYWGQGTQVTVSS | low polyreactivity
8 | QVQLVESGGGLVQAGGSLRLSCAASGRTLRHYAMGWYRQAPGKERELVAAISSTGSSTYYADSVKGRFTISRDNAKNTVYLQMNSLKPEDTAVYYCAADKYTWDAGGVDYWGQGTQVTVSS | low polyreactivity
9 | QVQLVESGGGLVQAGGSLRLSCAASGRTLRKYAMGWYRQAPGKERELVAAITTSGGSTYYADSVKGRFTISRDNAKNTVYLQMNSLKPDDTAVYYCNAARYYAYIGDYWGQGTQVTVSS | high polyreactivity
10 | QVQLVESGGGLVQAGGSLRLSCAASGRTLRQYAMGWYRQAPGKERELVAAISRGGSTTYADSVKGRFTISRDNAKNTVYIQMNSLKPEDTAVYYCAAVSSKGNRHEYDYWGQGTQVTVSS | low polyreactivity
11 | QVQLVESGGGLVQAGGSLRLSCAASGRTLRRNTMGWYRQAPGKERELVAAISWSGGSTYYADSVKGRFTISRDNPKNTVYLQMNSLKPEDTAVYYCAKVPRIGSYEMGYWGQGTQVTVSS | high polyreactivity
12 | QVQLVESGGGLVQAGGSLRLSCAASGRTLRRYAMGWYRQAPGKERELVAGISRNGGSTYYADSVKGRFTISRDNAKNTVYLQMNSLKPDDTAVYYCNKVAYPYSILRYGYWGLGTQVTVSS | high polyreactivity
13 | QVQLVESGGGLVQAGGSLRLSCAASGRTLRSNAMGWYRQAPGKERELVAAISSNGGSTYYADSVKGRFTISRDNAKNTVYLQMNSLKPEDTAVYYCAALSYYYSDRMDYWGQGTQVTVSS | low polyreactivity
14 | QVQLVESGGGLVQAGGSLRLSCAASGRTLRYYAMGWYRQAPGKERELVAAITSSDRTYYADSVKGRFTISRDNAKNTVYLQMNSLKPEVTAVYYCAAYRATQFGYYYWGQGTQVTVSS | high polyreactivity
15 | QVQLVESGGGLVQAGGSLRLSCAASGRTLRYYAMGWYRQAPGKERELVASISIGGSTFYADSVKGRFTISRDNAKNTVYLQMNSLKPEDTAVYYCAAENFWQTKEYDYWGQGTQVTVSS | low polyreactivity
16 | QVQLVESGGGLVQAGGSLRLSCAASGRTLSGYAMGWYRQAPGKERELVAVITSGGSTYYADSVKGRFTISRDNAKNTVYLQMNSVKPEDTAVYYCSARRGRRLQDSQYWGQGTQVTVSS | high polyreactivity
17 | QVQLVESGGGLVQAGGSLRLSCAASGRTLSHYAMGWYRQAPGKERELVAAITRSGGSTYYADSVKGRFTISRDNAKNTVYLQMNSLKPEDTAVYYCNKTLYTTYDYWGQGTQVTVSS | low polyreactivity
18 | QVQLVESGGGLVQAGGSLRLSCAASGRTLSYYAMGWYRQAPGKHRELVAAITYRAGRTYYADSVKGRFTISRDNAKYTVYLQLNSLKPEVTAVYYCYAVKSTGYGYWGQGTQVTVSS | high polyreactivity
19 | QVQLVESGGGLVQAGGSLRLSCAASGRTLTRYAMGWYRQAPGKERELVATISRCGSTNYADSVKGRFTISRDNGKNTVYLQMNSLKPEDTAVYYCAARGRLTAEFDYWGQGTQVTVSS | low polyreactivity
20 | QVQLVESGGGLVQAGGSLRLSCAASGRTLVDYGMGWYRQPPGKERELVAVITSGGSTYYADSVKGRFTISRDNAKNTVYLVMNSLKPEDTAVYYCNARHPYYTVQTGGYDYWGQGTQVTVSS | low polyreactivity
21 | QVQLVESGGGLVQAGGSLRLSCAASGRTLVGNAMGWYRQAPGKERELVAAISWSGGSTNYADSVKGRFTISRDNAKNTVYLQMNSLKPEDTAVYYCAASVYTYRYWDYYWGQGTQVTVSS | high polyreactivity
22 | QVQLVESGGGLVQAGGSLRLSCAASGRTLVKNAMGWYRQAPGKERELVAAISTSGGRTYYADSVKGRFTISRDNAKNTVYLQMNSLKPEDTAVYYCAAVLYATRPVYGFDSWGQGTQVTVSS | high polyreactivity

Row | Sequence | polyreactivity (PSR sort gate)
23 | QVQLVESGGGLVQAGGSLRLSCAASGRTLVLYVMGWYRQAPGKERELVAAISSGGSTNYADSVKGRFTISRDNAKNTVYLQMNSLKPEDTAVYYCAARFVLRRDYGYGGQGTQVTVSS | high polyreactivity
24 | QVQLVESGGGLVQAGGSLRLSCAASGRTLVPYAMGWYRQAPGKERELVAAINSSGGSTYYADSVKGRFTISRDNAKNTVYLQMNSLKPEDTAVYYCNVQSVHFRLWKDNYWGQGTQVTVSS | high polyreactivity
25 | QVQLVESGGGLVQAGGSLRLSCAASGRTLVRYTMGWYRQAPGKERELVASISQRGGTTYYADSVKGRFTISRDNAKNTVYLQMNSLKPEDTAVYYCNKASVSGSSGGGYESWGQGTQVTVSS | low polyreactivity
26 | QVQLVESGGGLVQAGGSLRLSCAASGRTLVVYAMGWYRQAPGKERELVADINWSGGRTYYADSVKGRFTISRDNAKNTVYLQMNSLKPEDTAVYYWAADLSWRQYYREYDYWGQGTQVSVSS | high polyreactivity
27 | QVQLVESGGGLVQAGGSLRLSCAASGRTLVYYAMGWYRQAPGKERELVAAISWSGSRTYYADSVKGRFTISRDNAKNTVYLQMNSLKPEDTAVYYCATLTFRTNGTMDYWGQGTQVTVSS | high polyreactivity
28 | QVQLVESGGGLVQAGGSLRLSCAASGRTLWIYAMGWYRQAPGKERELVASITTRGGSTYYADSVKGRFTISRDNAKNTVYLQMNSLKPEDTAVYYCAAEGYTYYTYYPHDYWGQGTQVTVSS | high polyreactivity
29 | QVQLVESGGGLVQAGGSLRLSCAASGRTLWSYAMGWYRQAPGKEREIVAAISRRGGITYYADSVKGRFTISRDYAKNTVFLQRISLKPVDTAVFYSAKGAQSYYGGQVKYDYWGQGTQVTVSS | high polyreactivity
30 | QVQLVESGGGLVQAGGSLRLSCAASGRTLWTNAMGWYRQAPGKEREFVAPITWRGGSTYYADSVKGRFTISRDNAKNTVNLQMNSLKPEDTAVYYCATLIPRKGSRYYHRGYWGQGSQVTVSS | high polyreactivity
31 | QVQLVESGGGLVQAGGSLRLSCAASGRTLYIYAMGWYRQAPGKERELVAAITRRGDSTYYADSVKGRFTISRDNAKNTVYLQMNSLKPVDTAVYYCAADFPDTSSQYDPAYEYWGQGTQVTVSS | low polyreactivity
32 | QVQLVESGGGLVQAGGSLRLSCAASGRTLYLYAMGWYRQEPGKERELVAGITWSGGSTYYADSVKGRFTISRDNAKNTVYLQMNSLKPEDTAVYYCAAVSYPDYDYWGQGTQVTVSS | low polyreactivity
33 | QVQLVESGGGLVQAGGSLRLSCAASGRTLYWYAMGWYRQAPGKERELVAAISSGGGSTYYADSVKGRFTISRDNAKNTVYLQMNSLKPEDTAVYYCATDEPWVYGYDYWGQGTQVTVSS | low polyreactivity
34 | QVQLVESGGGLVQAGGSLRLSCAASGRTMGQNVMGLYRQAPGKERELVAAISSNTAGNTYYADSVKGRFTISRDNAKNTVYLQMNSLKPEDTAVYYCAKVDSFEAKLDYWGQGTQVTVSS | low polyreactivity
35 | QVQLVESGGGLVQAGGSLRLSCAASGRTMYRNAMGWYRQAPGKERELVDDISRSGGSTFYADSVKGRFTISRDNAKNTVYLQMNSLKPEDTAVYYCNADYQEYVSGYDYWGQGTQVTVSS | high polyreactivity
36 | QVQLVESGGGLVQAGGSLRLSCAASGRTSAKYAMGWYRQAPGKERELVAVITKNSGSTYYADSVKGRFTISRDNAKNTVYLQMNSLKPEDTAVYYCNRVPRGINRQSRPEDYWGQGTQVTVSS | high polyreactivity
37 | QVQLVESGGGLVQAGGSLRLSCAASGRTSARYGMGWYRQAPGKERELVASIRRSGDSTYYADSVKGRFTISRDNAKNTVYLQMNSLKPEDTAVYYCAAGGKQGKRDYWGQGTQVTVSS | low polyreactivity
38 | QVQLVESGGGLVQAGGSLRLSCAASGRTSEFNAMGWYRQAPGKERELVAAITDGGNTNYADSVKGRFTISRDNAKNTVYLQMNSLKPEDTAVYYCAAERYTWWGFDYDYWGQGTQVTVSS | high polyreactivity
39 | QVQLVESGGGLVQAGGSLRLSCAASGRTSFWNAMGWYRQAPGKERELVSAISASVGRTYYADSVKGRFTISRDNAKNTVYLQMNSLKPEDTAVYYSAKVYHAGTGYPSLGLDYWGQGTQVTVSS | low polyreactivity
40 | QVQLVESGGGLVQAGGSLRLSCAASGRTSGYYAMGWYRQAPGKERELVAAISGGDSTNYADSVKGRFTFSRDNAKNTVYLQMNSLKPEDTAVYYCAKRTRVSWVPTFDYWGQGTQGTVSS | low polyreactivity
41 | QVQLVESGGGLVQAGGSLRLSCAASGRTSHRNVMGWYRQAPGTEREVVARISRSGGRTYYADSVKGRFTISRDNAKNTVYSQMNSLKPEDTAVYYCNADYSSRGANYDYWGQGTQVTVSS | high polyreactivity
42 | QVQLVESGGGLVQAGGSLRLSCAASGRTSNVYAMGWYRQAPGKERELVAAISSRDGTTYYADSVKGRFTISRDNAKNTVYLQMNSLKPEDTAVYYCAAAVLSYADYYYDYEYWGQGTQVTVSS | high polyreactivity
43 | QVQLVESGGGLVQAGGSLRLSCAASGRTSPVYAMGWYRQAPGKERELVAAIRGGARTYYADSEKGRFTISRDNAKNTVYLQMNSLKPEDTAVYYCATGSRYRLGPGDSWGQGTQGTVSS | high polyreactivity
